{"source": "patent US20110129457A1", "about": "(CURIS, published 2011)", "binders": {"B1": {"name": "Hhip1β12 (β-propeller-EGF1-EGF2, residues 193-667), C-terminal His6-tag (receptor)", "chain": "SNYLDQMEEYDKVEEISRKHKHNCFCIQEVVSGLRQPVGALHSGDGSQRLFILEKEGYVKILTPEGEIFKEPYLDIHKLVQSGIKGGDERGLLSLAFHPNYKKNGKLYVSYTTNQERWAIGPHDHILRVVEYTVSRKNPHQVDLRTARVFLEVAELHRKHLGGQLLFGPDGFLYIILGDGMITLDDMEEMDGLSDFTGSVLRLDVDTDMCNVPYSIPRSNPHFNSTNQPPEVFAHGLHDPGRCAVDRHPTDININLTILCSDSNGKNRSSARILQIIKGKDYESEPSLLEFKPFSNGPLVGGFVYRGCQSERLYGSYVFGDRNGNFLTLQQSPVTKQWQEKPLCLGTSGSCRGYFSGHILGFGEDELGEVYILSSSKSMTQTHNGKLYKIVDPKRPLMPEECRATVQPAQTLTSECSRLCRNGYCTPTGKCCCSPGWEGDFCRTAKCEPACRHGGVCVRPNKCLCKKGYLGPQCEHHHHHH"}}, "key": {"[1]": {"molecular_target": "fully lipid-modified Shh secreted by human HT29 cells (human, UniProt Q15465 24-197, N-terminal palmitoyl and C-terminal cholesterol modifications)", "assay": "cell-based or functional assay"}, "[2]": {"molecular_target": "B1", "assay": "competition ELISA: unlabeled Ihh against 5 nM biotinylated ShhN-Cys for immobilized Hhip1β12"}, "[3]": {"molecular_target": "T1, full length human Patched-1 on 293 cells (Ptch1-293 clone 10) (human, UniProt Q13635 1-1447)", "T1 construct": "whole, on cells; also called Ptch1 expressing cells; Ptch1-293 cells", "T1 sequence (looked up)": "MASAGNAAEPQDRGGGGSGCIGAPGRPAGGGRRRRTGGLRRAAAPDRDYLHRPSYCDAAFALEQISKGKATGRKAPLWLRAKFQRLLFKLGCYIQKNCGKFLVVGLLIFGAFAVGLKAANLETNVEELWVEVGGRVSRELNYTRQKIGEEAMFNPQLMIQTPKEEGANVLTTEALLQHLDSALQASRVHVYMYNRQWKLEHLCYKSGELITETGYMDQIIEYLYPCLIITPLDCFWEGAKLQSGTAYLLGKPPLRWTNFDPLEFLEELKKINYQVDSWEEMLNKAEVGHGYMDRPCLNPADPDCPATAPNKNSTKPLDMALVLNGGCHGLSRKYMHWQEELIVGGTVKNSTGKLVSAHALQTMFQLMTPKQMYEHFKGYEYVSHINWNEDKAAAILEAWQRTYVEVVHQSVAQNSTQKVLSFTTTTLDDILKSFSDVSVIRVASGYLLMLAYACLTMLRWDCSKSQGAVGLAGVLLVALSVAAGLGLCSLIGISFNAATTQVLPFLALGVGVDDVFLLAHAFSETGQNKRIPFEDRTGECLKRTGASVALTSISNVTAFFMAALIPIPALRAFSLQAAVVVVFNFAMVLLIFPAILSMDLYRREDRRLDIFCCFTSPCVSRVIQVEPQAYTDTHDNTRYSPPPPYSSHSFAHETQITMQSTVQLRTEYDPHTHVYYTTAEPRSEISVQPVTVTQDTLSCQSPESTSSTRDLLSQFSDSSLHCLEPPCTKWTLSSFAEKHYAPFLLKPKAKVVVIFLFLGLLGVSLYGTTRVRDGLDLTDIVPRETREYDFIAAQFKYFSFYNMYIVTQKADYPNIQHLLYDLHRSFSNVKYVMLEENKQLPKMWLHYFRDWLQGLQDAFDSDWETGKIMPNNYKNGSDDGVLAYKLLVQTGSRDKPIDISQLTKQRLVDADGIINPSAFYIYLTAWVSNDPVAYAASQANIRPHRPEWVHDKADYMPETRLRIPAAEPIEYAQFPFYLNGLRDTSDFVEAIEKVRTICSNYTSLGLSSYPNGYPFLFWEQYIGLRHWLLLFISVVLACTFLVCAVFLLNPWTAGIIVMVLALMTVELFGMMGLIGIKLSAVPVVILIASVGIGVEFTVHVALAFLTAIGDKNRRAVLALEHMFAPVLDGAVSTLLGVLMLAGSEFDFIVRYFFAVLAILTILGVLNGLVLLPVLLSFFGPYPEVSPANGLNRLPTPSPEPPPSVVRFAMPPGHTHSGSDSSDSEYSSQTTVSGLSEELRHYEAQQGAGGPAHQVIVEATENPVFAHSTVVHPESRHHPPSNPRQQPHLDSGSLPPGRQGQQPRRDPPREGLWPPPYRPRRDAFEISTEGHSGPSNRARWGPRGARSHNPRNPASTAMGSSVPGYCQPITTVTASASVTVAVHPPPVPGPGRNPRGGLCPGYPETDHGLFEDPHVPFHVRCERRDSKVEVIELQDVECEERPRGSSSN", "assay": "FACS competition: unlabeled Ihh against 1 nM Shh649 for Ptch1-expressing 293 cells"}, "[4]": {"molecular_target": "T1, full length human Patched-1 on 293 …", "assay": "FACS competition: 1 nM Shh649 with inhibitor on Ptch1 expressing cells"}, "[5]": {"molecular_target": "B1", "assay": "competition ELISA as in paragraph 570; the legend gives Ihh and Shh the other way round"}, "[6]": {"molecular_target": "B1", "assay": "competition ELISA: unlabeled Hh against 5 nM biotinylated-ShhN-Cys for immobilized Hhip1β12"}, "[7]": {"molecular_target": "T2, Shh-Flag (human Shh residues 25-197 with C-terminal Flag-Tag) (human, UniProt Q15465 25-197)", "T2 construct": "range 25-197; not shown: C-terminal Flag-Tag", "assay": "competition ELISA: Hip-L2 peptide dilution with 800 nM Hhip protein on Shh-Flag captured by anti-Flag M2, anti-His-HRP detection"}}, "data": [{"binder": "B1", "values": [{"measurement": "IC50, inhibition of Gli-luciferase activity in HT29/S12 co-culture", "setting": "[1]", "result": 5, "unit": "nM"}]}, {"binder": "Hhip1β12 D383A (receptor) SNYLDQMEEYDKVEEISRKHKHNCFCIQEVVSGLRQPVGALHSGDGSQRLFILEKEGYVKILTPEGEIFKEPYLDIHKLVQSGIKGGDERGLLSLAFHPNYKKNGKLYVSYTTNQERWAIGPHDHILRVVEYTVSRKNPHQVDLRTARVFLEVAELHRKHLGGQLLFGPDGFLYIILGDGMITLDDMEEMAGLSDFTGSVLRLDVDTDMCNVPYSIPRSNPHFNSTNQPPEVFAHGLHDPGRCAVDRHPTDININLTILCSDSNGKNRSSARILQIIKGKDYESEPSLLEFKPFSNGPLVGGFVYRGCQSERLYGSYVFGDRNGNFLTLQQSPVTKQWQEKPLCLGTSGSCRGYFSGHILGFGEDELGEVYILSSSKSMTQTHNGKLYKIVDPKRPLMPEECRATVQPAQTLTSECSRLCRNGYCTPTGKCCCSPGWEGDFCRTAKCEPACRHGGVCVRPNKCLCKKGYLGPQCEHHHHHH", "values": [{"measurement": "IC50, Gli-luciferase co-culture assay", "setting": "[1]", "result": "~10", "unit": "nM"}, {"measurement": "fold of IC50 against wildtype Hipβ12, Gli-luciferase co-culture assay", "setting": "[1]", "result": 2, "unit": "fold"}]}, {"binder": "Hhip1β12 D383R (receptor) SNYLDQMEEYDKVEEISRKHKHNCFCIQEVVSGLRQPVGALHSGDGSQRLFILEKEGYVKILTPEGEIFKEPYLDIHKLVQSGIKGGDERGLLSLAFHPNYKKNGKLYVSYTTNQERWAIGPHDHILRVVEYTVSRKNPHQVDLRTARVFLEVAELHRKHLGGQLLFGPDGFLYIILGDGMITLDDMEEMRGLSDFTGSVLRLDVDTDMCNVPYSIPRSNPHFNSTNQPPEVFAHGLHDPGRCAVDRHPTDININLTILCSDSNGKNRSSARILQIIKGKDYESEPSLLEFKPFSNGPLVGGFVYRGCQSERLYGSYVFGDRNGNFLTLQQSPVTKQWQEKPLCLGTSGSCRGYFSGHILGFGEDELGEVYILSSSKSMTQTHNGKLYKIVDPKRPLMPEECRATVQPAQTLTSECSRLCRNGYCTPTGKCCCSPGWEGDFCRTAKCEPACRHGGVCVRPNKCLCKKGYLGPQCEHHHHHH", "values": [{"measurement": "IC50, Gli-luciferase co-culture assay", "setting": "[1]", "result": 57, "unit": "nM"}, {"measurement": "fold change of IC50, Gli-luciferase co-culture assay", "setting": "[1]", "result": "~13", "unit": "fold"}]}, {"binder": "Hhip1β1 (β-propeller-EGF1, residues 193-637), C-terminal His6-tag (receptor) SNYLDQMEEYDKVEEISRKHKHNCFCIQEVVSGLRQPVGALHSGDGSQRLFILEKEGYVKILTPEGEIFKEPYLDIHKLVQSGIKGGDERGLLSLAFHPNYKKNGKLYVSYTTNQERWAIGPHDHILRVVEYTVSRKNPHQVDLRTARVFLEVAELHRKHLGGQLLFGPDGFLYIILGDGMITLDDMEEMDGLSDFTGSVLRLDVDTDMCNVPYSIPRSNPHFNSTNQPPEVFAHGLHDPGRCAVDRHPTDININLTILCSDSNGKNRSSARILQIIKGKDYESEPSLLEFKPFSNGPLVGGFVYRGCQSERLYGSYVFGDRNGNFLTLQQSPVTKQWQEKPLCLGTSGSCRGYFSGHILGFGEDELGEVYILSSSKSMTQTHNGKLYKIVDPKRPLMPEECRATVQPAQTLTSECSRLCRNGYCTPTGKCCCSPGWEGDFCRTAHHHHHH", "values": [{"measurement": "IC50, inhibition of Gli-luciferase activity in HT29/S12 co-culture", "setting": "[1]", "result": 20.3, "unit": "nM"}, {"measurement": "fold of IC50 against Hhip1ECD, Gli-luciferase co-culture", "setting": "[1]", "result": "~4", "unit": "fold"}]}, {"binder": "Human Ihh (residues 29-202), N-terminal His6-tag (ligand, range 29-202; also called His6-Ihh; Indian Hedgehog) not shown", "values": [{"measurement": "IC50 (read off the curve)", "setting": "[2]", "result": "~90", "unit": "nM"}, {"measurement": "IC50 (read off the curve)", "setting": "[3]", "result": "~3", "unit": "nM"}, {"measurement": "IC50", "setting": "[4]", "result": 1.1, "unit": "nM"}, {"measurement": "IC50", "setting": "[5]", "result": 53, "unit": "nM"}, {"measurement": "IC50", "setting": "[6]", "result": 87, "unit": "nM"}]}, {"binder": "Human Dhh (residues 24-198), N-terminal His6-tag (ligand, range 24-198; also called Desert Hedgehog) not shown", "values": [{"measurement": "IC50", "setting": "[6]", "result": 40, "unit": "nM"}]}, {"binder": "octyl-Ihh (octylated Ihh wildtype) (ligand, octylated (site not stated)) not shown", "values": [{"measurement": "IC50", "setting": "[4]", "result": 0.64, "unit": "nM"}]}, {"binder": "Ihh T154I (type A1 brachydactyly mutant) (ligand) not shown", "values": [{"measurement": "IC50", "setting": "[4]", "result": 140, "unit": "nM"}]}, {"binder": "octyl-T154I (octylated Ihh T154I) (ligand, octylated (site not stated)) not shown", "values": [{"measurement": "IC50", "setting": "[4]", "result": 10, "unit": "nM"}]}, {"binder": "GDGMITLDDMEEMDGLSDFTG (also called Hhip1-L2 peptide; peptide derived from the Hhip1β12 L2 loop)", "note": "[Hip-L2 peptide (GDGMITLDDMEEMDGLSDFTG) of the competition ELISA]", "values": [{"measurement": "IC50", "setting": "[7]", "result": 150000, "unit": "nM"}]}]}
